Assay results published in the supplement of paper PMC10724198.
± gives the standard deviation of the averaged measurements.
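Also: PSI is a weighted mean of sequencing reads over stability bins, variants kept only with over 10 reads, mCherry proximal and sfGFP distal, peptide attached via GGGS linker.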

The sequences below were run on Saccharomyces cerevisiae (assay: protein stability index of tFT-peptide fusion (C-terminal peptide) (PSI (0-1 scale)); higher = more stable (slower turnover)). Conditions: genetic background: wild type; temperature: 30 C.
Work on RGYLAKELGVKS yielded a protein stability index of 0.652 ± 0.02.
AGQNVWGAGTNE was tested, and the protein stability index was 0.712 ± 0.0079.
Sequence FYPHFCAHTRPH has a protein stability index of 0.7265 ± 0.0054.
Work on FKKMTNVIKGNN yielded a protein stability index of 0.689 ± 0.016.
VARVVGGVGGGW was tested, and the protein stability index was 0.6553 ± 0.006.
Work on PYNLSSRPSTLL yielded a protein stability index of 0.625 ± 0.053.
Sequence YQDDGRRPGFVI has a protein stability index of 0.675 ± 0.013.
In the case of PPFLPPSPPAPP, the protein stability index is reported as 0.691 ± 0.031.
With PPFPPHPPPSSA the protein stability index was 0.6873 ± 0.0052.
In the case of GKCKRYENISKR, the protein stability index is reported as 0.629 ± 0.0095.
For CAIGECRGAGVS, the protein stability index was 0.679 ± 0.032.
WGGGVLRRRVGA was tested, and the protein stability index was 0.752 ± 0.055.
EADRAPSGGAGN gave a protein stability index of 0.673 ± 0.013.
VNTISRKIPPIA gave a protein stability index of 0.648 ± 0.041.
PPPTPLLLSHLL was tested, and the protein stability index was 0.709 ± 0.068.
With SRVRSPPWTRKF the protein stability index was 0.739 ± 0.1.
Work on FPSPPHALPTFP yielded a protein stability index of 0.669 ± 0.071.
With SFPLPPLSPPSR the protein stability index was 0.73 ± 0.048.
With LWGGGGAGYWVG the protein stability index was 0.732 ± 0.035.
VLICGLNYLSLC gave a protein stability index of 0.64 ± 0.022.
In the case of GNSNDPALQPKQ, the protein stability index is reported as 0.68 ± 0.044.
With PRTPPQQEPRRP the protein stability index was 0.709 ± 0.054.
For FGVALGLRACAG, the protein stability index was 0.668 ± 0.059.
Work on IRLPHPPLPPSP yielded a protein stability index of 0.6673 ± 0.0025.
ASVLGGLFRDRV showed a protein stability index of 0.773 ± 0.057.
For YVTPALRPTSSR, the protein stability index was 0.728 ± 0.031.
Sequence GWPLWGAVRGFW has a protein stability index of 0.71 ± 0.035.
SCLWRGHDTVWL was tested, and the protein stability index was 0.662 ± 0.098.
For GTGGIFAVAPTL, the protein stability index was 0.737 ± 0.044.
PSRPAHSPPVPP showed a protein stability index of 0.646 ± 0.02.
In the case of LSLCVVFRAPSR, the protein stability index is reported as 0.686 ± 0.042.
For PRDSLMRLDCRL, the protein stability index was 0.691 ± 0.022.
LRSPHPLPPPPP was tested, and the protein stability index was 0.732 ± 0.062.
In the case of KKKKRQNIQNKK, the protein stability index is reported as 0.692 ± 0.054.
YWAPYVWMFGFR gave a protein stability index of 0.565 ± 0.0088.
With VVDSGLFLAASR the protein stability index was 0.643 ± 0.08.
Work on LPPCAPPLPPSS yielded a protein stability index of 0.706 ± 0.067.
DSGLVSRNLFLH was tested, and the protein stability index was 0.645 ± 0.18.
Work on GGSGQGAGAVWG yielded a protein stability index of 0.63 ± 0.076.
With ANVRTCCTSVPV the protein stability index was 0.652 ± 0.037.
For GIVDCTKVIGLP, the protein stability index was 0.722 ± 0.028.
VFPRVFGFGVCI was tested, and the protein stability index was 0.716 ± 0.054.
Sequence HCSVSGLQLFMD has a protein stability index of 0.699 ± 0.019.
In the case of HGTAQGVRRQGV, the protein stability index is reported as 0.711 ± 0.16.
APPPPRPLLPSL gave a protein stability index of 0.723 ± 0.047.
With HVKVGCGNGIVR the protein stability index was 0.644 ± 0.014.
PPARRPVPPLSC showed a protein stability index of 0.7187 ± 0.0058.
Work on EKVGVTVLLRHV yielded a protein stability index of 0.679 ± 0.038.
In the case of CVAGSARVCDVR, the protein stability index is reported as 0.627 ± 0.083.
In the case of VGLTNSHTHVRR, the protein stability index is reported as 0.767 ± 0.019.
LILFQYFYLPMT showed a protein stability index of 0.517 ± 0.044.
DTTTQPMSYEDP was tested, and the protein stability index was 0.669 ± 0.22.
NKRLKNKIKRIK showed a protein stability index of 0.651 ± 0.037.
In the case of FVASEFEVRLWR, the protein stability index is reported as 0.769 ± 0.01.
LIPCFSPLPSPF gave a protein stability index of 0.721 ± 0.018.
For RDTFLKMLDERN, the protein stability index was 0.732 ± 0.042.
In the case of RQFLSLLPCSLP, the protein stability index is reported as 0.771 ± 0.094.
For PLPPPPPTSLPP, the protein stability index was 0.705 ± 0.043.
Work on VGAVRVAVGVGG yielded a protein stability index of 0.566 ± 0.0096.
Sequence WFLLTSSTSRPP has a protein stability index of 0.737 ± 0.059.
In the case of GVSVSSSFLNGC, the protein stability index is reported as 0.669 ± 0.019.
For RVPDNYLKWSYI, the protein stability index was 0.719 ± 0.051.
For GGRRKKRVTPGE, the protein stability index was 0.656 ± 0.0097.
Work on GHVRVVVRRRVI yielded a protein stability index of 0.5812 ± 0.0021.
AFSGMMSVFREW was tested, and the protein stability index was 0.695 ± 0.049.
Work on DVVWRVVNDSDL yielded a protein stability index of 0.712 ± 0.051.
KLRETQIHQGKT was tested, and the protein stability index was 0.698 ± 0.021.
QRSEHGAHPTEP showed a protein stability index of 0.701 ± 0.035.
LKMRIYEKNGKE showed a protein stability index of 0.669 ± 0.049.
YRSLFPAPPLHP was tested, and the protein stability index was 0.6747 ± 0.0026.
Sequence GVCCLWVGFQGG has a protein stability index of 0.704 ± 0.017.
With AVPITRLPSPSP the protein stability index was 0.6668 ± 0.0047.
GLDEGCRVGEEV gave a protein stability index of 0.643 ± 0.013.
Work on EECSYERRRTRE yielded a protein stability index of 0.8059 ± 0.0017.
Work on GEILTLYLLPRL yielded a protein stability index of 0.705 ± 0.052.
With VRRGGGVGGYGI the protein stability index was 0.734 ± 0.084.
Sequence ENPIASQWVRRY has a protein stability index of 0.6737 ± 0.0039.
In the case of PGPWLGLTPCRT, the protein stability index is reported as 0.813 ± 0.14.
Work on CSDGAFELRRDG yielded a protein stability index of 0.544 ± 0.078.
VLIRRLPFTSYL gave a protein stability index of 0.6365 ± 0.0034.
For GQRGGRGKENSD, the protein stability index was 0.629 ± 0.04.
Work on PRCCDIEIESGR yielded a protein stability index of 0.68 ± 0.027.
Sequence GEVAQDLGRDIL has a protein stability index of 0.7124 ± 0.0019.
Sequence SGPSWSGGGWGR has a protein stability index of 0.648 ± 0.021.
VVTEKLKRAARA was tested, and the protein stability index was 0.669 ± 0.021.
HLKPTPPLPPNT gave a protein stability index of 0.67 ± 0.017.
Work on RKKEKKERKERK yielded a protein stability index of 0.66 ± 0.069.
SPSTSIPPLPAS gave a protein stability index of 0.73 ± 0.016.
For RVGRNLRVGGES, the protein stability index was 0.69 ± 0.008.
QKNKNTEKINTK was tested, and the protein stability index was 0.663 ± 0.018.
With PPHSIPSPSHPR the protein stability index was 0.714 ± 0.052.
Work on VLGRRGLVWKRV yielded a protein stability index of 0.5993 ± 0.0033.
Work on AEYSTAYRLGIC yielded a protein stability index of 0.644 ± 0.1.
RLTSPVLLFPLP showed a protein stability index of 0.713 ± 0.013.
Sequence GLQIERAVGIRH has a protein stability index of 0.708 ± 0.028.
For ELGSIYDGWARA, the protein stability index was 0.691 ± 0.011.
In the case of TTRKMGTRAPSL, the protein stability index is reported as 0.647 ± 0.095.
WLPRPHPPLRPA showed a protein stability index of 0.724 ± 0.08.
For GCWGGLGAPGVS, the protein stability index was 0.734 ± 0.028.
Sequence QTATIKGTLIAM has a protein stability index of 0.585 ± 0.0076.
LLSAPFRSFFTL gave a protein stability index of 0.5548 ± 0.0046.
